In patent US20230158141A1 (YAFEI SHANGHAI BIOLOG MEDICINE SCIENCE AND TECHNOLOGY, published 2023):

B1: IL-10 Thr100Cys-R4-7 (ligand, human, UniProt P22301 19-178, looked up)
chain: SPGQGTQSENSCTHFPGNLPNMLRDLRDAFSRVKTFFQMKDQLDNLLLKESLLEDFKGYLGCQALSEMIQFYLEEVMPQAENQDPDIKAHVNSLGENLKCLRLRLRRCHRFLPCENKSKAVEQVKNAFNKLQEKGIYKAMSEFDIFINYIEAYMTMKIRN
modifications: R4-7 on Cys 100
notes: mature
B2: anti-PD-1 antibody 2 light chain A34C (antibody, human IgG4 S228P, kappa, V domains shown)
VH: QVQLVESGGGVVQPGRSLRLDCKASGITFSNSGMHWVRQAPGKGLEWVAVIWYDGSKRYYADSVKGRFTISRDNSKNTLFLQMNSLRAEDTAVYYCATNDDYWGQGTLVTVSS
VL: EIVLTQSPATLSLSPGERATLSCRASQSVSSYLCWYQQKPGQAPRLLIYDASNRATGIPARFSGSGSGTDFTLTISSLEPEDFAVYYCQQSSNWPRTFGQGTKVEIKR
B3: anti-PD-1 antibody 2 HC Gly10Cys (antibody, human IgG4 S228P, kappa, V domains shown)
VH: QVQLVESGGCVVQPGRSLRLDCKASGITFSNSGMHWVRQAPGKGLEWVAVIWYDGSKRYYADSVKGRFTISRDNSKNTLFLQMNSLRAEDTAVYYCATNDDYWGQGTLVTVSS
VL: EIVLTQSPATLSLSPGERATLSCRASQSVSSYLAWYQQKPGQAPRLLIYDASNRATGIPARFSGSGSGTDFTLTISSLEPEDFAVYYCQQSSNWPRTFGQGTKVEIKR
modifications: arm on Cys10 as named in each row
B4: anti-PD-1 antibody 2 light chain G57C (antibody, human IgG4 S228P, kappa, V domains shown)
VH: QVQLVESGGGVVQPGRSLRLDCKASGITFSNSGMHWVRQAPGKGLEWVAVIWYDGSKRYYADSVKGRFTISRDNSKNTLFLQMNSLRAEDTAVYYCATNDDYWGQGTLVTVSS
VL: EIVLTQSPATLSLSPGERATLSCRASQSVSSYLAWYQQKPGQAPRLLIYDASNRATCIPARFSGSGSGTDFTLTISSLEPEDFAVYYCQQSSNWPRTFGQGTKVEIKR
B5: anti-PD-1 antibody 2 light chain S26C (antibody, human IgG4 S228P, kappa, V domains shown)
VH: QVQLVESGGGVVQPGRSLRLDCKASGITFSNSGMHWVRQAPGKGLEWVAVIWYDGSKRYYADSVKGRFTISRDNSKNTLFLQMNSLRAEDTAVYYCATNDDYWGQGTLVTVSS
VL: EIVLTQSPATLSLSPGERATLSCRACQSVSSYLAWYQQKPGQAPRLLIYDASNRATGIPARFSGSGSGTDFTLTISSLEPEDFAVYYCQQSSNWPRTFGQGTKVEIKR
B6: anti-PD-1 antibody 2 light chain S28C (antibody, human IgG4 S228P, kappa, V domains shown)
VH: QVQLVESGGGVVQPGRSLRLDCKASGITFSNSGMHWVRQAPGKGLEWVAVIWYDGSKRYYADSVKGRFTISRDNSKNTLFLQMNSLRAEDTAVYYCATNDDYWGQGTLVTVSS
VL: EIVLTQSPATLSLSPGERATLSCRASQCVSSYLAWYQQKPGQAPRLLIYDASNRATGIPARFSGSGSGTDFTLTISSLEPEDFAVYYCQQSSNWPRTFGQGTKVEIKR
B7: anti-PD-1 antibody 2 light chain S31C (antibody, human IgG4 S228P, kappa, V domains shown)
VH: QVQLVESGGGVVQPGRSLRLDCKASGITFSNSGMHWVRQAPGKGLEWVAVIWYDGSKRYYADSVKGRFTISRDNSKNTLFLQMNSLRAEDTAVYYCATNDDYWGQGTLVTVSS
VL: EIVLTQSPATLSLSPGERATLSCRASQSVSCYLAWYQQKPGQAPRLLIYDASNRATGIPARFSGSGSGTDFTLTISSLEPEDFAVYYCQQSSNWPRTFGQGTKVEIKR
B8: anti-PD-1 antibody 2 light chain S30C (antibody, human IgG4 S228P, kappa, V domains shown)
VH: QVQLVESGGGVVQPGRSLRLDCKASGITFSNSGMHWVRQAPGKGLEWVAVIWYDGSKRYYADSVKGRFTISRDNSKNTLFLQMNSLRAEDTAVYYCATNDDYWGQGTLVTVSS
VL: EIVLTQSPATLSLSPGERATLSCRASQSVCSYLAWYQQKPGQAPRLLIYDASNRATGIPARFSGSGSGTDFTLTISSLEPEDFAVYYCQQSSNWPRTFGQGTKVEIKR
B9: anti-PD-1 antibody 2 HC Thr69Cys (antibody, human IgG4 S228P, kappa, V domains shown)
VH: QVQLVESGGGVVQPGRSLRLDCKASGITFSNSGMHWVRQAPGKGLEWVAVIWYDGSKRYYADSVKGRFCISRDNSKNTLFLQMNSLRAEDTAVYYCATNDDYWGQGTLVTVSS
VL: EIVLTQSPATLSLSPGERATLSCRASQSVSSYLAWYQQKPGQAPRLLIYDASNRATGIPARFSGSGSGTDFTLTISSLEPEDFAVYYCQQSSNWPRTFGQGTKVEIKR
modifications: arm on Cys69 as named in each row
B10: anti-PD-1 antibody 1 light chain G28C (antibody, human IgG4 S228P, kappa, V domains shown)
VH: QVQLVQSGVEVKKPGASVKVSCKASGYTFTNYYMYWVRQAPGQGLEWMGGINPSNGGTNFNEKFKNRVTLTTDSSTTTAYMELKSLQFDDTAVYYCARRDYRFDMGFDYWGQGTTVTVSS
VL: EIVLTQSPATLSLSPGERATLSCRASKCVSTSGYSYLHWYQQKPGQAPRLLIYLASYLESGVPARFSGSGSGTDFTLTISSLEPEDFAVYYCQHSRDLPLTFGGGTKVEIKR
notes: also called PD-1-Ab1-Gly28Cys; PD1 Ab-C28
B11: anti-PD-1 antibody 1 light chain S56C (antibody, human IgG4 S228P, kappa, V domains shown)
VH: QVQLVQSGVEVKKPGASVKVSCKASGYTFTNYYMYWVRQAPGQGLEWMGGINPSNGGTNFNEKFKNRVTLTTDSSTTTAYMELKSLQFDDTAVYYCARRDYRFDMGFDYWGQGTTVTVSS
VL: EIVLTQSPATLSLSPGERATLSCRASKGVSTSGYSYLHWYQQKPGQAPRLLIYLACYLESGVPARFSGSGSGTDFTLTISSLEPEDFAVYYCQHSRDLPLTFGGGTKVEIKR
B12: anti-PD-1 antibody 1 light chain S95C (antibody, human IgG4 S228P, kappa, V domains shown)
VH: QVQLVQSGVEVKKPGASVKVSCKASGYTFTNYYMYWVRQAPGQGLEWMGGINPSNGGTNFNEKFKNRVTLTTDSSTTTAYMELKSLQFDDTAVYYCARRDYRFDMGFDYWGQGTTVTVSS
VL: EIVLTQSPATLSLSPGERATLSCRASKGVSTSGYSYLHWYQQKPGQAPRLLIYLASYLESGVPARFSGSGSGTDFTLTISSLEPEDFAVYYCQHCRDLPLTFGGGTKVEIKR
B13: anti-PD-1 antibody 1 light chain G61C (antibody, human IgG4 S228P, kappa, V domains shown)
VH: QVQLVQSGVEVKKPGASVKVSCKASGYTFTNYYMYWVRQAPGQGLEWMGGINPSNGGTNFNEKFKNRVTLTTDSSTTTAYMELKSLQFDDTAVYYCARRDYRFDMGFDYWGQGTTVTVSS
VL: EIVLTQSPATLSLSPGERATLSCRASKGVSTSGYSYLHWYQQKPGQAPRLLIYLASYLESCVPARFSGSGSGTDFTLTISSLEPEDFAVYYCQHSRDLPLTFGGGTKVEIKR
B14: anti-PD-1 antibody 1 light chain S35C (antibody, human IgG4 S228P, kappa, V domains shown)
VH: QVQLVQSGVEVKKPGASVKVSCKASGYTFTNYYMYWVRQAPGQGLEWMGGINPSNGGTNFNEKFKNRVTLTTDSSTTTAYMELKSLQFDDTAVYYCARRDYRFDMGFDYWGQGTTVTVSS
VL: EIVLTQSPATLSLSPGERATLSCRASKGVSTSGYCYLHWYQQKPGQAPRLLIYLASYLESGVPARFSGSGSGTDFTLTISSLEPEDFAVYYCQHSRDLPLTFGGGTKVEIKR
B15: anti-PD-1 antibody 1 light chain S26C (antibody, human IgG4 S228P, kappa, V domains shown)
VH: QVQLVQSGVEVKKPGASVKVSCKASGYTFTNYYMYWVRQAPGQGLEWMGGINPSNGGTNFNEKFKNRVTLTTDSSTTTAYMELKSLQFDDTAVYYCARRDYRFDMGFDYWGQGTTVTVSS
VL: EIVLTQSPATLSLSPGERATLSCRACKGVSTSGYSYLHWYQQKPGQAPRLLIYLASYLESGVPARFSGSGSGTDFTLTISSLEPEDFAVYYCQHSRDLPLTFGGGTKVEIKR
B16: anti-PD-1 antibody 1 light chain S32C (antibody, human IgG4 S228P, kappa, V domains shown)
VH: QVQLVQSGVEVKKPGASVKVSCKASGYTFTNYYMYWVRQAPGQGLEWMGGINPSNGGTNFNEKFKNRVTLTTDSSTTTAYMELKSLQFDDTAVYYCARRDYRFDMGFDYWGQGTTVTVSS
VL: EIVLTQSPATLSLSPGERATLSCRASKGVSTCGYSYLHWYQQKPGQAPRLLIYLASYLESGVPARFSGSGSGTDFTLTISSLEPEDFAVYYCQHSRDLPLTFGGGTKVEIKR
B17: anti-PD-1 antibody 1 light chain S60C (antibody, human IgG4 S228P, kappa, V domains shown)
VH: QVQLVQSGVEVKKPGASVKVSCKASGYTFTNYYMYWVRQAPGQGLEWMGGINPSNGGTNFNEKFKNRVTLTTDSSTTTAYMELKSLQFDDTAVYYCARRDYRFDMGFDYWGQGTTVTVSS
VL: EIVLTQSPATLSLSPGERATLSCRASKGVSTSGYSYLHWYQQKPGQAPRLLIYLASYLECGVPARFSGSGSGTDFTLTISSLEPEDFAVYYCQHSRDLPLTFGGGTKVEIKR
B18: anti-PD-1 antibody 1 light chain S30C (antibody, human IgG4 S228P, kappa, V domains shown)
VH: QVQLVQSGVEVKKPGASVKVSCKASGYTFTNYYMYWVRQAPGQGLEWMGGINPSNGGTNFNEKFKNRVTLTTDSSTTTAYMELKSLQFDDTAVYYCARRDYRFDMGFDYWGQGTTVTVSS
VL: EIVLTQSPATLSLSPGERATLSCRASKGVCTSGYSYLHWYQQKPGQAPRLLIYLASYLESGVPARFSGSGSGTDFTLTISSLEPEDFAVYYCQHSRDLPLTFGGGTKVEIKR
B19: anti-PD-1 antibody 1 light chain G33C (antibody, human IgG4 S228P, kappa, V domains shown)
VH: QVQLVQSGVEVKKPGASVKVSCKASGYTFTNYYMYWVRQAPGQGLEWMGGINPSNGGTNFNEKFKNRVTLTTDSSTTTAYMELKSLQFDDTAVYYCARRDYRFDMGFDYWGQGTTVTVSS
VL: EIVLTQSPATLSLSPGERATLSCRASKGVSTSCYSYLHWYQQKPGQAPRLLIYLASYLESGVPARFSGSGSGTDFTLTISSLEPEDFAVYYCQHSRDLPLTFGGGTKVEIKR

Columns and labels:
[1] = biological target: T1, IL-10R1-Fc (UniProt Q13651 22-235, limits assumed); experiment: ELISA, IL-10R1-Fc coated
T1 sequence (looked up): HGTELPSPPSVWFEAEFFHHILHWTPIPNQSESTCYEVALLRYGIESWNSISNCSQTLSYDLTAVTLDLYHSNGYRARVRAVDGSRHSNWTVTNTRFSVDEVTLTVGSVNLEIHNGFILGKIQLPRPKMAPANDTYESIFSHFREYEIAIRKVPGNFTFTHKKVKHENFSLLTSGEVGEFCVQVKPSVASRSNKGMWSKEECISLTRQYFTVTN

[2] = biological target: T2, IL-10R2-Fc/His (UniProt Q08334 20-220, limits assumed); experiment: ELISA, IL-10R2-Fc/His coated
T2 sequence (looked up): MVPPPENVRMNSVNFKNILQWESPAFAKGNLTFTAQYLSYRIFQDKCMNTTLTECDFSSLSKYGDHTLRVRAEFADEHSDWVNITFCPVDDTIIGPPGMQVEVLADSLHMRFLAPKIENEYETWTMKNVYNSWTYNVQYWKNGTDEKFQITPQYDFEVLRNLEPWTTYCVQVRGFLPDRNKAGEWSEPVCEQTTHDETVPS

[3] = biological target: PD-1 (UniProt Q15116 25-167, limits assumed); experiment: ELISA, OD mutant/OD WT; A=90-110%
Target sequence in this assay (Q15116 25-167 limits assumed): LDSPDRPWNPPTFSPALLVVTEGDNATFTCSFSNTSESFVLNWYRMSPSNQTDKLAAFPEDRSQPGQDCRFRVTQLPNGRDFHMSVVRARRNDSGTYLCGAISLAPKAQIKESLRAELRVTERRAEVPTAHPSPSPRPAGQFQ

[4] = biological target: PD-1 (UniProt Q15116 25-167, limits assumed); experiment: ELISA; S9 on the Cys
Target sequence in this assay (Q15116 25-167 limits assumed): as above

Binder	binding activity (OD after mutation/OD wild type) [3] [%]	further results
B1		Binding recovery (>60%) [1]: 99.3%; Binding recovery (>60%) [2]: 90.7%
B2	90 to 110	
B3		binding activity, % of wild type [4]: 69.3%
B4	90 to 110	
B5	90 to 110	
B6	90 to 110	
B7	90 to 110	
B8	90 to 110	
B9		binding activity, % of wild type [4]: 78.6%
B10	90 to 110	
B11	90 to 110	
B12	90 to 110	
B13	90 to 110	
B14	90 to 110	
B15	90 to 110	
B16	90 to 110	
B17	90 to 110	
B18	90 to 110	
B19	90 to 110	
